# Assay results published in patent publication US8138323.
# How the values were obtained:
# [1] = molecular target: Tumor Necrosis Factor (TNF) Binding Protein II (human) (UniProt P20333); assay: solid phase assay, 125I-TBP-II bound to TNF-α with 10 µg/ml IL-6 as competitor
# [2] = molecular target: TNF Binding Protein I (human) (UniProt P19438); assay: solid phase assay, 125I-TBP-I bound to TNF-α with 10 µg/ml IL-6 as competitor
# [3] = molecular target: Tumor Necrosis Factor (TNF) Binding Protein II (human) (UniProt P20333); assay: solid phase assay, 125I-TBP-II bound to TNF-α with 10 µg/ml IL-1α as competitor
# [4] = molecular target: TNF Binding Protein I (human) (UniProt P19438); assay: solid phase assay, 125I-TBP-I bound to TNF-α with 10 µg/ml IL-1α as competitor
# [5] = molecular target: Tumor Necrosis Factor (TNF) Binding Protein II (human) (UniProt P20333); assay: solid phase assay, 125I-TBP-II bound to TNF-α with 10 µg/ml IFN-gamma as competitor
# [6] = molecular target: TNF Binding Protein I (human) (UniProt P19438); assay: solid phase assay, 125I-TBP-I bound to TNF-α with 10 µg/ml IFN-gamma as competitor
substance,measurement,setting,value
IL-6 (from UniProt P05231 30-212) (ligand),bound CPM,[1],18600 CPM
same,bound CPM,[2],27000 CPM
IL-1α (from UniProt P01583 113-271) (ligand),bound CPM,[3],17800 CPM
same,bound CPM,[4],28100 CPM
IFN-gamma (from UniProt P01579 24-166) (ligand),bound CPM,[5],18500 CPM
same,bound CPM,[6],28000 CPM
